Source: PMC6602975

Columns and labels:
[1] = biological target: Unmodified nucleosome core particle (X. laevis histone octamer on 147 bp Widom-601 DNA) (X. laevis); test: native gel or EMSA; increasing amounts of Orc1 or Sir3 proteins with 50 or 25 nM nucleosomes; 10 mM Tris pH 7.5, 50 mM NaCl, 2.5% glycerol, 1 mM DTT; room temperature, 30 min; native PAGE 6% (Sir3) or 8% (Orc1), 0.2X TBE; decrease of free nucleosome; apparent KD from a Hill fit
[2] = biological target: H4K16ac nucleosome (X. laevis | not stated); test: as above

## Orc1 BAH A2P (from UniProt P54784 1-214) (domain or fragment)
[1]
  fold loss of affinity compared with the WT domain: 2 fold

## Orc1 BAH E95K (from UniProt P54784 1-214) (domain or fragment)
[1]
  fold loss of affinity: 4 fold

## Orc1 BAH R202E (from UniProt P54784 1-214) (domain or fragment)
[1]
  fold decrease in affinity compared with the WT domain: 4.9 fold

## Sir3 BAH D205Q (from UniProt P06701 1-214) (domain or fragment)
[2]
  fold difference in affinity compared with unmodified nucleosome: 4 fold
